Measured values: the supplement of paper PMC7877785
± gives the uncertainty stated by the source.

Test: self-splicing fitness, log relative to wild type (ln ratio); higher = more splicing; Tetrahymena group I intron in knt gene, E. coli kanamycin selection, DiMSum; sequences stand for … in CUCUCU…GGAGGGAAAAGUUAUCAGGCAUGCACCUGGUAGCUAGUCUUUAAACCAAUAGAUUGCAUCGGUUUAAAAGGCAAGACCGUCAAAUUGCGGGAAAGGGGUCAACAGCCGUUCAGUACCAAGUCUCAGGGGAAACUUUGAGAUGGCCUUGCAAAGGGUAUGGUAAUAAGCUGACGGACAUGGUCCUAACCACGCAGCCAAGUCCUAAGUCAACAGAUCUUCUGUUGAUAUGGAUGCAGUUCACAGACUAAAUGUCGGUCGGGGAAGAUGUAUUCUUCUCAUAAGAUAUAGUCGGACCUCUCCUUAAUGGGAGCUAGCGGAUGAAGUGAUGCAACACUGGAGCCGCUGGGAACUAAUUUGUAUGCGAAAGUAUAUUGAUUAGUUUUGGAGUACUCGUGGUCG
Outline: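 Six replicate transformations of E. coli BL21(DE3) with a pET-22b(+) library were grown overnight at 37°C or 30°C. The library randomised all eight P1ex-region intron nucleotides, the intron lying in the knt kanamycin-resistance gene, and plates were LB agar with or without 25 μg/mL kanamycin plus 100 μg/mL carbenicillin, 50 μM IPTG and 0.2% rhamnose. Pooled colonies were amplicon-sequenced on an Illumina HiSeq 2500, and fitness is the DiMSum error-weighted combination of wild-type-normalised replicate fold changes, kanamycin versus none.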

Sequence | self-splicing fitness (ln) (30 °C) | self-splicing fitness (ln) (37 °C)
UAUCAGCAAUAUUACGUUCU | -2.22 ± 0.11 | -1.03 ± 0.13
ACAGAGCAAUAUUACGACGU | -1.31 ± 0.091 | -0.557 ± 0.11
GGCUAGCAAUAUUACGCUGU | -3.44 ± 0.29 | -1.19 ± 0.21
UCAUAGCAAUAUUACGAGCG | -1.95 ± 0.12 | -0.509 ± 0.13
UCAAAGCAAUAUUACGCACG | -1.18 ± 0.11 | -0.632 ± 0.16
CAUUAGCAAUAUUACGAAGU |  | -1.37 ± 0.44
UACCAGCAAUAUUACGUGGC | -4.31 ± 0.22 | -3.66 ± 0.2
ACAAAGCAAUAUUACGACAG | -1.34 ± 0.066 | -0.8 ± 0.084
ACCGAGCAAUAUUACGUCAG | -3.7 ± 0.16 | -2.73 ± 0.17
UCGAAGCAAUAUUACGUCAG | -0.27 ± 0.089 | -0.968 ± 0.12
UGUGAGCAAUAUUACGUGUC |  | -1.75 ± 0.28
AGAAAGCAAUAUUACGAGCA | -0.695 ± 0.11 | -0.262 ± 0.16
GAUAAGCAAUAUUACGCCCG | -2.05 ± 0.2 | -0.456 ± 0.24
UAUUAGCAAUAUUACGGACG | -0.257 ± 0.11 | 0.171 ± 0.12
GAGGAGCAAUAUUACGGGAA | -2.81 ± 0.26 | -1.84 ± 0.46
UAACAGCAAUAUUACGGCAU | -1.85 ± 0.093 | 0.0326 ± 0.093
AGUGAGCAAUAUUACGGUUC | -2.21 ± 0.26 | -1.7 ± 0.38
CGCGAGCAAUAUUACGUAGG | -2.88 ± 0.14 | -0.445 ± 0.12
UUGGAGCAAUAUUACGGACG | -3.11 ± 0.32 | -1.04 ± 0.34
AUACAGCAAUAUUACGUCAC | -3.13 ± 0.16 | -2.1 ± 0.17
CUGUAGCAAUAUUACGACGU | -1.13 ± 0.21 | -1.54 ± 0.26
GGGGAGCAAUAUUACGUAAU | -4.07 ± 0.47 | -0.557 ± 0.19
AGUGAGCAAUAUUACGAAUC |  | -1.49 ± 0.38
AAAGAGCAAUAUUACGGGUA | -2.81 ± 0.26 | -1.88 ± 0.27
CAUCAGCAAUAUUACGAAAU | -4.26 ± 0.2 | -2.66 ± 0.16

Sequence | self-splicing fitness (ln) (30 °C) | self-splicing fitness (ln) (37 °C)
UUGCAGCAAUAUUACGUGGU | -2.14 ± 0.16 | -2.76 ± 0.28
GUAAAGCAAUAUUACGACAA | -0.153 ± 0.12 | -0.2 ± 0.13
UUUCAGCAAUAUUACGCCGG | -0.905 ± 0.17 | -1.68 ± 0.25
UGGAAGCAAUAUUACGACAG | -0.462 ± 0.13 | -0.603 ± 0.19
AGACAGCAAUAUUACGGACA | -1.09 ± 0.1 | -0.425 ± 0.12
UCACAGCAAUAUUACGGUCU | -1.01 ± 0.081 | -1.67 ± 0.11
GUCCAGCAAUAUUACGUCAG | -4.93 ± 0.28 | -2.16 ± 0.14
CUACAGCAAUAUUACGUCCA | -3.07 ± 0.25 | -1.3 ± 0.24
UAGGAGCAAUAUUACGGCUA | -0.122 ± 0.11 | 0.147 ± 0.11
GGUCAGCAAUAUUACGGCAU | -0.469 ± 0.073 | 0.642 ± 0.1
CGAGAGCAAUAUUACGGUGA | -3.9 ± 0.22 | -2.44 ± 0.2
AAUUAGCAAUAUUACGUAUG | -1.04 ± 0.12 | -1.13 ± 0.16
GCUUAGCAAUAUUACGAUCC | -0.0566 ± 0.1 | 0.226 ± 0.13
UUACAGCAAUAUUACGGGAA | -1.78 ± 0.086 | -0.461 ± 0.084
AAGCAGCAAUAUUACGUAUG | -4.5 ± 0.26 | -2.63 ± 0.17
ACCCAGCAAUAUUACGUACA | -1.85 ± 0.087 | -0.804 ± 0.085
GAAAAGCAAUAUUACGGAAC | -2.14 ± 0.13 | -1.25 ± 0.15
CCGGAGCAAUAUUACGGAAG | -2.73 ± 0.11 | -2.21 ± 0.14
CAUCAGCAAUAUUACGGCAU | -2.85 ± 0.15 | -1.66 ± 0.17
AUGAAGCAAUAUUACGAAUC | -1.68 ± 0.23 | 
UCGGAGCAAUAUUACGCGCU |  | -2.3 ± 0.37
CCUAAGCAAUAUUACGGGUU | -3.52 ± 0.2 | -2.84 ± 0.2
CCUUAGCAAUAUUACGGAUU | -3.31 ± 0.22 | -2.38 ± 0.36
CAGGAGCAAUAUUACGCCGC | -2.74 ± 0.25 | -1.58 ± 0.46
UGUGAGCAAUAUUACGAGGA | -2.55 ± 0.29 | -2.89 ± 0.31

Sequence | self-splicing fitness (ln) (30 °C) | self-splicing fitness (ln) (37 °C)
UUCAAGCAAUAUUACGAGAA | -1.84 ± 0.3 | -1.61 ± 0.37
GUUGAGCAAUAUUACGAGAA |  | -0.619 ± 0.5
AGACAGCAAUAUUACGCAAA | -2.66 ± 0.18 | -1.37 ± 0.14
UAAGAGCAAUAUUACGGCGC | -2.68 ± 0.32 | -2.01 ± 0.41
GGGAAGCAAUAUUACGAGGA | -3.34 ± 0.48 | -2.24 ± 0.29
UAUGAGCAAUAUUACGUAGG | -4.19 ± 0.34 | -2.41 ± 0.21
AUCAAGCAAUAUUACGCUGC | -2.4 ± 0.41 | -0.934 ± 0.33
UGUAAGCAAUAUUACGACAU | -1.44 ± 0.015 | -0.831 ± 0.034
CUAUAGCAAUAUUACGGGGU | -4.1 ± 0.2 | -2.83 ± 0.28
UUCCAGCAAUAUUACGUGGA | -3.28 ± 0.24 | -2.95 ± 0.26
AAUAAGCAAUAUUACGGAAG | -3.52 ± 0.28 | -1.86 ± 0.39
GCUAAGCAAUAUUACGUUUU | -2 ± 0.093 | -0.945 ± 0.1
CUCGAGCAAUAUUACGACUU | -3.19 ± 0.19 | -1.73 ± 0.23
CGGCAGCAAUAUUACGUUAU | -2.5 ± 0.17 | -2.56 ± 0.21
UUUUAGCAAUAUUACGUUAU | -2.53 ± 0.25 | -1.73 ± 0.35
UAGGAGCAAUAUUACGUUUC | -2.55 ± 0.29 | -2.68 ± 0.44
GGCGAGCAAUAUUACGCUUC | -3.8 ± 0.34 | -2.53 ± 0.49
AAAUAGCAAUAUUACGGCCU | -0.218 ± 0.095 | 0.661 ± 0.17
CUUAAGCAAUAUUACGCCUU |  | -2.63 ± 0.39
GACUAGCAAUAUUACGUUUC | -2.3 ± 0.12 | -2.84 ± 0.18
UCCGAGCAAUAUUACGUUGU | -2.89 ± 0.14 | -2.96 ± 0.22
AUGGAGCAAUAUUACGGGGC | -3.13 ± 0.18 | -2.14 ± 0.19
UAGUAGCAAUAUUACGACUU | 0.654 ± 0.13 | -0.285 ± 0.14
GCACAGCAAUAUUACGCGAU | -2.12 ± 0.16 | -1.55 ± 0.15
UUUUAGCAAUAUUACGUGUG | -2.29 ± 0.16 | -1.17 ± 0.15

Sequence | self-splicing fitness (ln) (30 °C) | self-splicing fitness (ln) (37 °C)
UAGUAGCAAUAUUACGUUAU | -3.5 ± 0.43 | -3.13 ± 0.4
CAACAGCAAUAUUACGAACU | -3.29 ± 0.15 | -0.988 ± 0.11
AUUUAGCAAUAUUACGACGA | -0.672 ± 0.15 | 0.131 ± 0.18
AUAUAGCAAUAUUACGUUUU | -2.98 ± 0.22 | -1.82 ± 0.22
CGAGAGCAAUAUUACGGGUA | -2.27 ± 0.31 | -2.23 ± 0.27
ACUGAGCAAUAUUACGCCAU | -2.4 ± 0.16 | -2.74 ± 0.27
GUGCAGCAAUAUUACGCCGG | -2.21 ± 0.41 | 
GUCCAGCAAUAUUACGGUUC | -0.386 ± 0.049 | 0.219 ± 0.065
AGUCAGCAAUAUUACGCAGU | -1.89 ± 0.23 | -0.11 ± 0.17
GGUGAGCAAUAUUACGGGCA | -1.68 ± 0.17 | -0.406 ± 0.17
GGCCAGCAAUAUUACGCGUU | -0.164 ± 0.09 | 0.0494 ± 0.12
GCACAGCAAUAUUACGCGGC | -4.04 ± 0.43 | -1.84 ± 0.26
UCGGAGCAAUAUUACGAGGA | -3.64 ± 0.4 | -0.618 ± 0.21
CUGAAGCAAUAUUACGAGUG | 0.0379 ± 0.053 | 0.068 ± 0.084
CUUGAGCAAUAUUACGAGUA | -2.07 ± 0.37 | -2.52 ± 0.32
CGUUAGCAAUAUUACGAACC | -0.385 ± 0.069 | -0.0684 ± 0.073
UCUCAGCAAUAUUACGUCCG | -2.5 ± 0.28 | -2.26 ± 0.41
CUUAAGCAAUAUUACGGUAA |  | -3.38 ± 0.37
UAAGAGCAAUAUUACGGCCA | -1.81 ± 0.3 | -1.48 ± 0.37
UGAAAGCAAUAUUACGUACC | -1.36 ± 0.12 | -1.61 ± 0.17
UUCGAGCAAUAUUACGUGCA | -2.18 ± 0.19 | -1.4 ± 0.16
UAAAAGCAAUAUUACGAGAU | -3.14 ± 0.13 | -2.98 ± 0.2
CGUUAGCAAUAUUACGGCCA | -1.01 ± 0.29 | -2.55 ± 0.46
